# Measurements published in patent publication US20040115215A1.
# Experiments:
# [1] = target: Crotalus durissus terrificus venom; assay: ELISA, C.d.t. venom-coated; dilution 1:500
# [2] = target: Crotalus durissus terrificus venom; assay: ELISA, C.d.t. venom-coated; dilution 1:5
# [3] = target: Crotalus durissus terrificus venom; assay: ELISA, C.d.t. venom-coated; dilution 1:3125
# [4] = target: Crotalus durissus terrificus venom; assay: ELISA, C.d.t. venom-coated; dilution 1:312,500
# [5] = target: Crotalus durissus terrificus venom; assay: ELISA, C.d.t. venom-coated; dilution 1:62,500
# [6] = target: Crotalus durissus terrificus venom; assay: ELISA, C.d.t. venom-coated; dilution 1:125
# [7] = target: Crotalus durissus terrificus venom; assay: ELISA, C.d.t. venom-coated; dilution 1:125; remark: listed apart in the source
# [8] = target: Crotalus durissus terrificus venom; assay: ELISA, C.d.t. venom-coated; undiluted
# [9] = target: Crotalus durissus terrificus venom; assay: ELISA, C.d.t. venom-coated; dilution 1:2,500
# [10] = target: Crotalus durissus terrificus venom; assay: ELISA, C.d.t. venom-coated; dilution 1:3125; remark: listed apart in the source
# [11] = target: Crotalus durissus terrificus venom; assay: ELISA, C.d.t. venom-coated; dilution 1:25
# [12] = target: Crotalus durissus terrificus venom; assay: ELISA, C.d.t. venom-coated; dilution 1:12,500
# [13] = target: Crotalus durissus terrificus venom; assay: ELISA, C.d.t. venom-coated; dilution 1:25; remark: listed apart in the source
# [14] = target: Crotalus durissus terrificus venom; assay: ELISA, C.d.t. venom-coated; dilution 1:625
# [15] = target: Crotalus durissus terrificus venom; assay: ELISA, C.d.t. venom-coated; dilution 1:625; remark: listed apart in the source
substance,measurement,setting,value
preimmune IgY (from unimmunized hens or supermarket eggs) (antibody),absorbance (412 nm filter),[1],0.005 OD
same,absorbance,[2],< 0 OD
same,absorbance,[3],< 0 OD
same,absorbance (412 nm filter),[4],0.01 OD
same,absorbance (412 nm filter),[5],0.001 OD
same,absorbance,[6],< 0 OD
same,absorbance,[7],0.003 OD
same,absorbance,[8],0.003 OD
same,absorbance (412 nm filter),[9],0.004 OD
same,absorbance,[10],0.002 OD
same,absorbance,[11],0.016 OD
same,absorbance (412 nm filter),[12],0.001 OD
same,absorbance,[13],0 OD
same,absorbance,[14],< 0 OD
same,absorbance,[15],0 OD
